Source: paper PMC7896505, “Expression, purification, crystallization and preliminary X-ray crystallographic studies of a mitochondrial membrane-associated protein Cbs2 from Saccharomyces cerevisiae” (PeerJ, 2021)

Biological target: the molecule itself
Test: SEC; Superdex 200 10/300 in buffer G (20 mM Tris-HCl pH 7.5, 100 mM NaCl, 2 mM DTT); molecular weight from a calibration curve (Gel Filtration Calibration Kits HMW and LMW); peak at approximately 90 KDa against about 44 KDa on SDS-PAGE

B1: Cbs2 from Saccharomyces cerevisiae (natural protein, S. cerevisiae, UniProt P14905 1-389, looked up)
chain: MSSSIPRVYSLGNSAMTYLLALRIAQLPSQPKVPSVVLLLNDQKKLNRFLNNDSKIIVKSSNNNKETYHRQFMASCVPPILSNGEIAPIENLIVSDPSSKFITAQLSKYNKSLRPETNILFLNPSLNLLEHLHRYRWRFDEARPNLFMGFTTPVDVGTIHQEFQLSLKVKGRIQFHIAKIDGFPRMSSTGKSASLSLRGDRQKNEKENNAFYKLFREISRLRSGIGSDLVSFDLHVHGFQDLFFTELEKLILESCTEPLLAVYDCVYKKELLKIPGAQDIIKKLISEQLSIIDRSYPSLNTNPNYSVIFDKERIFSLVMRDLEVNGHKRAKLAQSLNQLNQTNINELNGFFVSLGKYKKCNCKWNDILLTLIKGKQFITKQKALDYHYL
notes: 389 amino acids; The selenomethionine derivative (Se-Cbs2) was used only for crystallization; also called recombinant Cbs2; Cbs2-His tag; source: E. coli C43 (DE3), purified (Ni-NTA, Hitrap Q anion exchange, Superdex 200 gel filtration)
For B1, the “stoichiometry N” value was 2.
